Experiment [1] deals with T1, human CLEC12A on cells (HL60, PL21, Ba/F3-hCLEC12A) (human, UniProt Q5QGZ9 1-265).
T1 construct: Endogenous on the AML lines HL60 and PL21; brought into mouse Ba/F3 cells by retroviral transduction; The cell line stands under assay; also called CLL-1
T1 sequence: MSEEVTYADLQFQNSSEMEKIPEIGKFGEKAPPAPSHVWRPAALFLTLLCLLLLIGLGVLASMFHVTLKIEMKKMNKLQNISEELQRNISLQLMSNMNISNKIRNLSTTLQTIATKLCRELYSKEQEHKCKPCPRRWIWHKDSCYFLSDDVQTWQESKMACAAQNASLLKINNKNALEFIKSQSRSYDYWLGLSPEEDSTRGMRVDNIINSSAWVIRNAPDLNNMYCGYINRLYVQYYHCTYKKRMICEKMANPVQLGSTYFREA
The experiment is described as follows: flow cytometry, Ba/F3-hCLEC12A cells. Background: Flow cytometry measures light scatter and fluorescence of single cells or particles in a stream.

The target of experiment [2] is T1, human CLEC12A on cells (HL60, PL21, …). The experiment is described as follows: flow cytometry, PL21 cells.
Experiment [3] has the same target. The experiment is described as follows: flow cytometry, HL60 cells.
The target is the same in experiment [4]. The experiment is described as follows: flow cytometry, 40 nM, MFI after 2 h 37 C relative to 2 h on ice, HL60 cells.
Experiment [5] shares this target. In words: flow cytometry, 40 nM, MFI after 2 h 37 C relative to 2 h on ice, PL21 cells.
Experiment [6] deals with T2, recombinant human CLEC12A-His (human, UniProt Q5QGZ9 65-265).
T2 construct: also called hCLEC12A-His; hCLEC12A
T2 sequence: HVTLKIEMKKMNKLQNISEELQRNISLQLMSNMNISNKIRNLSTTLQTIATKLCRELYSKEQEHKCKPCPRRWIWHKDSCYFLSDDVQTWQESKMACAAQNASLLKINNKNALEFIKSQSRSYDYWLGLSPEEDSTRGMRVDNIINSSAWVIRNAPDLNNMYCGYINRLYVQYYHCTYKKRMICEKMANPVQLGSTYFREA
In words: SPR screening.

In experiment [7] the target is T3, de-glycosylated hCLEC12A (human, UniProt Q5QGZ9 65-265, N-linked glycans removed (PNGase F)).
T3 construct: also called PNGase-treated hCLEC12A; De-glycosylated CLEC12A
T3 sequence: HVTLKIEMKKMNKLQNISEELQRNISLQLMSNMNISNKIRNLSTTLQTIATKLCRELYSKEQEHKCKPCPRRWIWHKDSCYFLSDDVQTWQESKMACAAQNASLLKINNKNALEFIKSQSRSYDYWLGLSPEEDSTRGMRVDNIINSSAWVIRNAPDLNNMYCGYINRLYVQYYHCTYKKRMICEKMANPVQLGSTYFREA
The experiment is described as follows: SPR.

The target in experiment [8] is T4, de-sialylated hCLEC12A (human, UniProt Q5QGZ9 65-265, terminal sialic acids removed (neuraminidase)).
T4 construct: also called De-sialylated CLEC12A
T4 sequence: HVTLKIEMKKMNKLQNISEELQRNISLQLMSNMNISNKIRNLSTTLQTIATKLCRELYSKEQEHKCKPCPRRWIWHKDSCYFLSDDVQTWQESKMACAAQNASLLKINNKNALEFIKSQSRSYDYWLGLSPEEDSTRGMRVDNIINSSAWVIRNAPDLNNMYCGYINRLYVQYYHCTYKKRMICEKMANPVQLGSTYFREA
The experiment is described as follows: SPR. In general terms: In SPR one partner is held on a chip, and binding of the other changes the refractive index at the surface.

Experiment [9] deals with T2, recombinant human CLEC12A-His. The experiment is described as follows: SPR.

B1: AB0305 mAb (Humanized 1739 anti-CLEC12A mAb) (antibody, IgG1, V domains shown)
VH: QLQLQESGPGLVKPSETLSLTCTVSGFSLTNYGLHWIRQPPGKGLEWIGVIWVGGATDYNPSLKSRVTISVDTSKNQFSLKLSSVQAADTAVYYCAKGDYGDTLDYWGQGTLVTVSS
VL: DIQMTQSPSSLSASVGDRVTITCHASQNINFWLSWYQQKPGKAPKLLIYEASNLHTGVPSRFSGSGSGTDFTLTISSLQPEDFATYYCQQSHSYPLTFGSGTKLEIK
notes: Parental hIgG1 mAb; also called parental mAb of AB0089
What is called EC50 is the concentration at which the effect is half-maximal. The low end stands for greater potency, the high end for weaker potency. As for B1, the EC50 was found to be 0.67 nM in [1], 0.12 nM in [2] and 0.12 nM in [3]. For the same molecule, the “FOB (fold over background)” value in experiment [1] stood at 279 fold; in [2], 15 fold; in experiment [3], 53 fold. The percent surface retention in experiment [4] is 90%; in experiment [5], 92%.

B2: AB0037 mAb (Humanized 1602 anti-CLEC12A mAb) (antibody, V domains shown)
VH: QLQLQESGPGLVKPSETLSLTCTVSGFSLTNYGLHWIRQPPGKGLEWIGVIWSGGKTDYNPSLKSRVTISKDTSKNQFSLKLSSVQAADTAVYYCAKYDYDDSLDYWGQGTLVTVSS
VL: DIQMTQSPSSLSASVGDRVTITCHASQNINFWLSWYQQKPGKAPKLLIYEASNLHTGVPSRFSGSGSGTRFTLTISSLQPEDIATYYCQQSHSYPLTFGGGTKLEIK
notes: Parental mAb of AB0237; also called humanized mAb 16B8.C8; parental mAb of AB0237
With B2, the EC50 in experiment [1] is 1.4 nM; in experiment [2], 0.52 nM; in experiment [3], 0.52 nM. In addition, the “FOB (fold over background)” value was determined as 301 fold in experiment [1], 13 fold in experiment [2] and 51 fold in experiment [3]. For the same molecule, the percent surface retention was determined as 74% in experiment [4] and 79% in experiment [5].

B3: F3'-1602 TriNKET (other)
chain: QLQLQESGPGLVKPSETLSLTCTVSGFSLTNYGLHWIRQPPGKCLEWIGVIWSGGKTDYNPSLKSRVTISKDTSKNQFSLKLSSVQAADTAVYYCAKYDYDDSLDYWGQGTLVTVSSGGGGSGGGGSGGGGSGGGGSDIQMTQSPSSLSASVGDRVTITCHASQNINFWLSWYQQKPGKAPKLLIYEASNLHTGVPSRFSGSGSGTRFTLTISSLQPEDIATYYCQQSHSYPLTFGCGTKLEIKGSDKTHTCPPCPAPELLGGPSVFLFPPKPKDTLMISRTPEVTCVVVDVSHEDPEVKFNWYVDGVEVHNAKTKPREEQYNSTYRVVSVLTVLHQDWLNGKEYKCKVSNKALPAPIEKTISKAKGQPREPRVYTLPPCRDELTKNQVSLTCLVKGFYPSDIAVEWESNGQPENNYKTTPPVLVSDGSFTLYSKLTVDKSRWQQGNVFSCSVMHEALHNHYTQKSLSLSPG
heavy: EVQLVESGGGLVKPGGSLRLSCAASGFTFSSYSMNWVRQAPGKGLEWVSSISSSSSYIYYADSVKGRFTISRDNAKNSLYLQMNSLRAEDTAVYYCARGAPIGAAAGWFDPWGQGTLVTVSSASTKGPSVFPLAPSSKSTSGGTAALGCLVKDYFPEPVTVSWNSGALTSGVHTFPAVLQSSGLYSLSSVVTVPSSSLGTQTYICNVNHKPSNTKVDKKVEPKSCDKTHTCPPCPAPELLGGPSVFLFPPKPKDTLMISRTPEVTCVVVDVSHEDPEVKFNWYVDGVEVHNAKTKPREEQYNSTYRVVSVLTVLHQDWLNGKEYKCKVSNKALPAPIEKTISKAKGQPREPQVCTLPPSRDELTENQVSLTCLVKGFYPSDIAVEWESNGQPENNYKTTPPVLDSDGSFFLYSWLTVDKSRWQQGNVFSCSVMHEALHNHYTQKSLSLSPG
light: DIQMTQSPSSVSASVGDRVTITCRASQGISSWLAWYQQKPGKAPKLLIYAASSLQSGVPSRFSGSGSGTDFTLTISSLQPEDFATYYCQQGVSFPRTFGGGTKVEIKRTVAAPSVFIFPPSDEQLKSGTASVVCLLNNFYPREAKVQWKVDNALQSGNSQESVTEQDSKDSTYSLSSTLTLSKADYEKHKVYACEVTHQGLSSPVTKSFNRGEC
notes: F3' format TriNKET; also called AB0237
For B3, the figures for the EC50 in experiment [1], in experiment [2] and in experiment [3] were 1.54 nM, 0.52 nM and 1.01 nM, respectively. Besides, the “FOB (fold over background)” value came to 341 fold in experiment [1], 15 fold in [2] and 66 fold in experiment [3]. For the same molecule, the percent surface retention in experiment [4] is 106%; in experiment [5], 91%.

B4: AB0089 TriNKET (other)
chain: QLQLQESGPGLVKPSETLSLTCTVSGFSLTNYGLHWIRQPPGKCLEWIGVIWVGGATDYNPSLKSRVTISVDTSKNQFSLKLSSVQAADTAVYYCAKGDYGDTLDYWGQGTLVTVSSGGGGSGGGGSGGGGSGGGGSDIQMTQSPSSLSASVGDRVTITCHASQNINFWLSWYQQKPGKAPKLLIYEASNLHTGVPSRFSGSGSGTDFTLTISSLQPEDFATYYCQQSHSYPLTFGCGTKLEIKGSDKTHTCPPCPAPELLGGPSVFLFPPKPKDTLMISRTPEVTCVVVDVSHEDPEVKFNWYVDGVEVHNAKTKPREEQYNSTYRVVSVLTVLHQDWLNGKEYKCKVSNKALPAPIEKTISKAKGQPREPRVYTLPPCRDELTKNQVSLTCLVKGFYPSDIAVEWESNGQPENNYKTTPPVLVSDGSFTLYSKLTVDKSRWQQGNVFSCSVMHEALHNHYTQKSLSLSPG
heavy: EVQLVESGGGLVKPGGSLRLSCAASGFTFSSYSMNWVRQAPGKGLEWVSSISSSSSYIYYADSVKGRFTISRDNAKNSLYLQMNSLRAEDTAVYYCARGAPIGAAAGWFDPWGQGTLVTVSSASTKGPSVFPLAPSSKSTSGGTAALGCLVKDYFPEPVTVSWNSGALTSGVHTFPAVLQSSGLYSLSSVVTVPSSSLGTQTYICNVNHKPSNTKVDKKVEPKSCDKTHTCPPCPAPELLGGPSVFLFPPKPKDTLMISRTPEVTCVVVDVSHEDPEVKFNWYVDGVEVHNAKTKPREEQYNSTYRVVSVLTVLHQDWLNGKEYKCKVSNKALPAPIEKTISKAKGQPREPQVCTLPPSRDELTENQVSLTCLVKGFYPSDIAVEWESNGQPENNYKTTPPVLDSDGSFFLYSWLTVDKSRWQQGNVFSCSVMHEALHNHYTQKSLSLSPG
light: DIQMTQSPSSVSASVGDRVTITCRASQGISSWLAWYQQKPGKAPKLLIYAASSLQSGVPSRFSGSGSGTDFTLTISSLQPEDFATYYCQQGVSFPRTFGGGTKVEIKRTVAAPSVFIFPPSDEQLKSGTASVVCLLNNFYPREAKVQWKVDNALQSGNSQESVTEQDSKDSTYSLSSTLTLSKADYEKHKVYACEVTHQGLSSPVTKSFNRGEC
notes: F3' format TriNKET
On to B4, for which the values for the EC50 in experiment [1], in experiment [2] and in [3] were 2.28 nM, 0.34 nM and 1.08 nM, respectively. Also, the figures for the “FOB (fold over background)” value in [1], in [2] and in experiment [3] were 434 fold, 16 fold and 70 fold, respectively. Also, the percent surface retention in experiment [4] stood at 147%; in [5] it was 124%.

B5: m9F11-hIgG1 (antibody, V domains shown)
VH: EVQLQESGGGLVQPGGSRKLSCAASGFTFNSFGMHWVRQAPEKGLEWVAFISSGSTSIYYANTVKGRFTISRDNPKNTLFLQMTSLRSEDTAMYYCARDGYPTGGAMDYWGQGTSVTVSS
VL: DIKMTQSPSSMYASLGERVTITCKASQDIYNYLSWFQLKPGKSPRPLIYRANILVSGVPSKFSGSGSGQDYSLTINSLEYEDLGIYYCLQFDAFPFTFGSGTKLEIK
notes: also called chimeric parent mouse 9F11.B7 mAb
The Kd is a measure of binding affinity in units of concentration. By koff is commonly meant a measure of how fast the partners let go of each other. The term kon denotes the second-order rate constant of association. Regarding B5, in experiment [6], the Kd amounted to 1.07 nM, the off-rate constant (koff) was 0.00102 s⁻¹ and the kon worked out at 950000 M⁻¹ s⁻¹.

B6: Murine F3'-9F11 (other)
VH: EVQLQESGGGLVQPGGSRKLSCAASGFTFNSFGMHWVRQAPEKGLEWVAFISSGSTSIYYANTVKGRFTISRDNPKNTLFLQMTSLRSEDTAMYYCARDGYPTGGAMDYWGQGTSVTVSS
VL: DIKMTQSPSSMYASLGERVTITCKASQDIYNYLSWFQLKPGKSPRPLIYRANILVSGVPSKFSGSGSGQDYSLTINSLEYEDLGIYYCLQFDAFPFTFGSGTKLEIK
notes: the text calls it clone 9F11.B7; F3' construct (scFv order, Fc, NKG2D Fab) not spelled out
Take B6: in [7], binding was characterised by a dissociation constant (Kd) of 0.34 nM, the off-rate (koff) worked out at 0.000374 s⁻¹ and the kon turned out to be 1.11e+06 M⁻¹ s⁻¹. For the same molecule, in experiment [8], the Kd stood at 0.62 nM, the koff was determined as 0.00098 s⁻¹ and the on-rate constant (kon) worked out at 1.58e+06 M⁻¹ s⁻¹. Further, in experiment [9], the Kd amounted to 0.96 nM, the koff was found to be 0.00111 s⁻¹ and the association rate constant (kon) amounted to 1.15e+06 M⁻¹ s⁻¹.

B7: AB0306 mAb (Humanized 1797 anti-CLEC12A mAb) (antibody, IgG1, V domains shown)
VH: EVQLVESGGGVVQPGGSLRLSCAASGFTFNAFGMHWVRQAPGKGLEWVAFISSGSTSIYYANTVKGRFTISRDNSKNTLYLQMNSLRAEDTAVYYCARDGYPTGGAMDYWGQGTSVTVSS
VL: DIQMTQSPSSLSASVGDRVTITCKASQDIYNYLSWFQQKPGKAPKPLIYRANILVSGVPSRFSGSGSGQDYTFTISSLQPEDIATYYCLQFDAFPFTFGSGTKLEIK
notes: Parental hIgG1 mAb of AB0192; also called parental mAb of AB0192
Regarding B7, the EC50 stood at 0.68 nM in experiment [1], 0.18 nM in [2] and 0.26 nM in experiment [3]. Further, the “FOB (fold over background)” value in experiment [1] came out at 303 fold; in experiment [2] it was 12 fold; in experiment [3], 47 fold. For the same molecule, the percent surface retention in experiment [4] worked out at 114%; in [5] it was 106%.

Values taken from patent US20220119534A1 (DRAGONFLY THERAPEUTICS, published 2022).
